Results taken from the Human Domainome abundance scans (Beltran et al. 2025).

B1: Storkhead-box protein 2, residues 64 to 141; numbered along this chain, Q9P2F5 (parent)
chain: SPISQSQFIPLGEILCLAISAMNSARKPVTQEALMEHLTTCFPGVPTPSQEILRHTLNTLVRERKIYPTPDGYFIVTP
B2: MEF2-activating motif and SAP domain-containing transcriptional regulator, residues 170 to 204; numbered along this chain, Q6ZN01 (parent)
chain: LKLEELTVSELRQQLRLRGLPVSGTKSMLLERMRG

Variants of: B1
Test: abundance fitness (aPCA) (normalised: wild type 0, dead -1); higher = more abundant; growth selection in yeast, the domain comes from the species named
Details: Homo sapiens

Abundance fitness, by site and new letter:
K65: L -0.06 | M -0.171 | N -0.493 | P -0.967 | Q 0.078 | R -0.031 | S -0.082 | T -0.03 | V 0 | W -0.209 | Y -0.154
I66: A -0.173 | C 0.016 | D -1.02 | E -1.08 | F -0.937 | G -0.894 | H -1 | L -0.05 | M -0.249 | Q -1.01 | R -1.17 | T -0.38 | V -0.041 | W -0.847 | Y -0.971
Y67: A 0.03 | C 0.039 | F -0.021 | G -0.053 | H -0.006 | I 0.02 | K 0.083 | L -0.029 | M 0.102 | N -0.06 | P -0.566 | Q -0.017 | R 0.022 | S 0.001 | T -0.05 | V -0.02 | W -0.049
P68: A 0.065 | C 0.044 | D -0.042 | F -0.014 | G -0.003 | H 0.051 | I -0.046 | K -0.082 | L 0.017 | M -0.038 | N 0.009 | R 0 | S 0.059 | T 0.04 | V 0.082 | W -0.057 | Y -0.141
T69: A -0.028 | D -0.04 | E -0.095 | G -0.003 | H -0.071 | I -0.298 | K -0.249 | L -0.195 | M -0.148 | N -0.042 | P -0.703 | Q -0.036 | R -0.015 | V -0.13 | W -0.362 | Y -0.358
P70: A 0.023 | C -0.051 | D 0.091 | E -0.004 | F -0.081 | G -0.027 | H -0.143 | I 0.021 | K 0.041 | M -0.097 | N 0.036 | Q 0.034 | R 0.05 | S 0.016 | T 0.037 | V 0.011 | W -0.141 | Y -0.061
D71: A -0.002 | C -0.154 | E -0.005 | F -0.099 | G 0.018 | H 0.031 | I -0.313 | K 0.073 | M -0.054 | N -0.012 | P -0.223 | Q -0.054 | R -0.088 | S -0.05 | T 0.004 | V -0.022 | W -0.189 | Y -0.243
G72: A -0.304 | C -0.383 | D -0.033 | E -0.078 | H -0.293 | I -0.613 | K -0.272 | L -0.461 | M -0.209 | N -0.16 | P -0.614 | Q -0.034 | R -0.32 | S -0.121 | T -0.132 | V -0.568 | W -0.662 | Y -0.527
Y73: D -0.136 | E -0.089 | I -0.261 | K -0.085 | L -0.029 | M -0.108 | N 0.043 | P -0.149 | Q -0.078 | R -0.055 | S -0.011 | T -0.174 | V -0.171 | W -0.041
F74: A 0.095 | C -0.042 | D -0.038 | E -0.004 | G 0.052 | H -0.248 | I -0.001 | K 0.024 | L -0.046 | M 0.073 | N -0.361 | P -0.445 | Q 0.006 | S 0.077 | T -0.031 | V -0.003 | W -0.002 | Y -0.065
I75: A -0.04 | C 0.017 | F -0.109 | G -0.033 | H -0.172 | K -0.219 | L -0.017 | M 0.1 | N -0.177 | P -0.039 | Q -0.026 | S 0.038 | V 0.024 | W -0.057 | Y -0.013
V76: A 0.001 | C 0.03 | D -0.102 | E 0.037 | F -0.012 | G -0.011 | H -0.114 | I -0.363 | K 0.032 | M 0.035 | N 0.05 | P 0.001 | Q -0.007 | S 0.092 | T -0.03 | W -0.028 | Y -0.087
T77: A -0.019 | C 0.04 | D 0.077 | E 0.034 | F -0.073 | G -0.057 | H -0.084 | I -0.261 | L -0.072 | M -0.164 | N 0.059 | P -0.003 | Q -0.099 | R 0.09 | S 0.024 | V -0.065 | W -0.111 | Y -0.084
P78: A -0.05 | C 0.072 | E -0.44 | F -0.37 | G -0.239 | H -0.191 | K -0.086 | M -0.289 | N -0.219 | R 0.049 | S -0.038 | T -0.191 | V -0.182 | Y -0.098

Variants of: B2
Test: as above
Details: Homo sapiens

Abundance fitness of substitutions, site by site:
R16: W -0.129 | Y -0.613 | K 0.284
L15: M -0.185 | G -0.391
R34: E -0.089 | C -0.021 | A -0.118 | W -0.556 | S -0.064
P21: K -0.494 | W -0.854 | Y -0.909 | C -0.347 | E -0.036 | R -0.39 | V -0.335
Q13: I -0.036 | H 0.054 | S -0.203
L11: S -0.542 | P -0.64 | Y -0.497 | H -0.811
L3: Q -0.296 | A -0.275 | E -0.249 | C -1.03
M33: E -0.146 | T -0.525 | S -0.34
K26: W -0.361 | S -0.697 | R 0.048
E4: F -0.679 | D -0.035 | G -0.574 | V -1.08 | H -0.046 | T -0.171
T25: V -0.435 | G -0.27 | F -0.608 | S 0.004
L30: Y -0.915 | A -0.356 | G -0.493
M28: S -0.36 | W -0.839 | V 0.05 | F -0.616 | T -0.081 | C -0.393
T7: S -0.071 | L -0.768 | D -0.111 | K -0.184
Q14: W -0.141 | D -0.551 | P -0.863 | H -0.192
K2: L -0.444 | D -0.496
L1: W -0.045 | S -0.12
V8: D -0.38 | L -0.099 | A 0.142 | Q -0.648 | C -0.486 | M -0.206
L17: Q -0.032 | V -0.054 | G -0.238 | T -0.081
E31: S -0.27
G35: S -0.262
R12: V -0.304 | T -0.199
S9: P -0.291 | L -0.275 | Y -0.345
E10: I -0.781 | T -0.782 | F -0.895 | C -0.678
L29: N -0.683 | V -0.842 | K -0.31 | Y -0.469
G19: E -0.261 | K -0.227 | R -0.337
L6: V -0.399
E5: A -0.218
S27: P -0.19 | R -0.154
R18: A -0.009 | S -0.206
R32: Q -0.232
V22: S -0.168 | R -0.375
G24: Q -0.935
S23: A -0.103 | Y -0.106
L20: I -0.646 | R -0.914 | T -0.879
